Laboratory results from publication PMC3154026.

Target: TamL, FAD-dependent oxidase (flavoprotein) of the tirandamycin biosynthetic gene cluster (Streptomyces sp. 307-9)
Assay: crystal structure

stoichiometry N: 2
Substance: TamL, FAD-dependent oxidase (flavoprotein) of the tirandamycin biosynthetic gene cluster (enzyme)
